± gives the standard deviation.
Test: protein stability index of a GFP-peptide fusion (GPS, HEK-293T) (PSI 1-6); higher = more stable
Details: c terminus: a fixed tail appended
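Also: 24-mer peptide tiles fused after GFP, lentivirally expressed, FACS-sorted into six equal bins by GFP/DsRed ratio, decoded by Illumina sequencing, PSI is the read-weighted mean bin number.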

Row | Sequence | protein stability index (treatment: DMSO) | protein stability index (treatment: MLN4924 1 uM, 8 h)
1 | CMVGYDMGATRCDFTLSKTNMARI [CPXM2] | 2.24 ± 0.6 | 2.1 ± 0.22
2 | CNECAKLIIQAGIKEVIFMSDKYH [DCTD] | 2.01 ± 0.81 | 2.43 ± 0.41
3 | CNECGKAFRWGAHLVQHQRIHSGE [ZNF232] | 4.44 ± 0.56 | 4.53 ± 0.26
4 | CPQSLPCFEASDCKESSPMPVICG [NANOGP8] | 3.77 ± 0.18 | 3.89 ± 0.083
5 | CQACRFMKCLKVGMLKEGVRLDRV [ESRRG] | 2.6 ± 0.45 | 2.04 ± 0.16
6 | CQQNMIQELIETNQQLRNELQLEQ [CEP70] | 4.12 ± 0.26 | 3.85 ± 0.51
7 | CSGTELSLAHCRHDGEDVACPQGG [LOXL2] | 4.78 ± 0.73 | 4.3 ± 0.24
8 | CSSSDDDTDVDMEGLRRRRGREAG [PBXIP1] | 5.3 ± 0.28 | 5.26 ± 0.21
9 | CVPAHPPPCAWACPVPAHRRGSWR [CTBP1-DT] | 2.56 ± 0.19 | 2.77 ± 0.18
10 | CVQCGKSYSQSSNLFRHQRRHNAE [ZNF24] | 4 ± 0.16 | 4.42 ± 0.42
11 | CYRENTHQTLKCSALATQYMHCVN [CHCHD3] | 2.17 ± 0.47 | 2.26 ± 0.43
12 | DAILYYYQSGGRLKRPVNVPFDIF [KCNA4] | 2.58 ± 0.54 | 2.52 ± 0.63
13 | DAKDAARDMNGKSLDGKAIKVEQA [RBMX] | 5.36 ± 0.41 | 5.37 ± 0.39
14 | DCSGLVLLCLFFGIPWEAGARQIS [PCDHGA10] | 3.45 ± 0.4 | 3.19 ± 0.2
15 | DDAGTSGGPSSPPSDPPAMSPGPL [C2CD2L] | 5.38 ± 0.38 | 5.37 ± 0.32
16 | DDEEVDTHFASQEFFSANAISDQL [ADAMTSL2] | 5.27 ± 0.23 | 5.21 ± 0.15
17 | DDVEVLTLKKFKGDLAYRRQEYQK [C8orf76] | 3.78 ± 0.18 | 3.92 ± 0.31
18 | DETLSSSHQKCPQLGGPEASGGLV [PLEKHN1] | 4.97 ± 0.1 | 4.8 ± 0.31
19 | DFHYCDREHVCRKDQRNPPSLGRV [RBMY1A1] | 3.27 ± 0.27 | 3.8 ± 0.4
20 | DGAISAHKPLLICSCEWMAAMFGG [RHOBTB1] | 2.25 ± 0.29 | 2.3 ± 0.15
21 | DHARGKSQVALKIIRNVGKYREAA [CLK3] | 3.15 ± 0.18 | 3.33 ± 0.19
22 | DHCAQQDHGCEQLCLNTEDSFVCQ [MATN2] | 5 ± 0.075 | 5.08 ± 0.16
23 | DHKEPKEEINKNISDFGRQQLLPP [EHMT1] | 5.1 ± 0.2 | 5.16 ± 0.21

Row | Sequence | protein stability index (treatment: DMSO) | protein stability index (treatment: MLN4924 1 uM, 8 h)
24 | DHSSQSEEEVVEGEKEVEALKKSA [BNIP3L] | 5.5 ± 0.36 | 5.67 ± 0.26
25 | DITRYYLCLQLRDDIVSGRLPCSF [EPB41L3] | 2.97 ± 0.57 | 2.63 ± 0.5
26 | DIYYNNMEEVCGGEKPYLSPDILE [ATL3] | 3.72 ± 0.57 | 3.59 ± 0.27
27 | DKFQWLAGLAPPSLFARAMQVLVT [ANKRD9] | 2.56 ± 0.44 | 2.29 ± 0.15
28 | DKMEGNPICVQIPWDKNPEALAKW [CRY1] | 4.54 ± 0.094 | 4.33 ± 0.24
29 | DKRRDLAHLAAEVEGKCLQSGFEM [TRIM39] | 3.97 ± 0.18 | 4.03 ± 0.36
30 | DKVRALEEANADLEVKIHDWYQKQ [KRT15] | 4.4 ± 0.24 | 4.3 ± 0.36
31 | DLAALKQRLEEETRKREDAEHNLV [PRPH] | 4.96 ± 0.46 | 4.6 ± 0.4
32 | DLKARIDQNTVVTRQLSEENANLQ [MTUS2] | 4.83 ± 0.14 | 4.93 ± 0.083
33 | DLLHGPECRSSVTSDSEGAHVNTL [PHTF1] | 4.33 ± 0.14 | 4.61 ± 0.35
34 | DLLKFEKKFQSEKAAGSVSKSTQF [FIS1] | 3.82 ± 0.18 | 3.53 ± 0.18
35 | DLNKDKPVIPAAALAGYTGSGPIQ [ETS1] | 4.2 ± 0.13 | 4.14 ± 0.25
36 | DLRSGTLYSLTLYGLRGPHKADSI [TNXB] | 2.16 ± 0.48 | 1.95 ± 0.27
37 | DLSSESSIKKKFLKRKGKTDSPWI [EHMT1] | 3.42 ± 0.37 | 3.66 ± 0.26
38 | DLVLHTNYTATVRGLRGPNLTSPA [TNXB] | 2.79 ± 0.31 | 2.71 ± 0.32
39 | DLVQWTRHMEAVKAQLLEQAQGQL [SOAT2] | 2.62 ± 0.56 | 2.69 ± 0.24
40 | DNIKYQPKGGQVQIVTKKIDLSHV [MAP2] | 3.34 ± 0.38 | 3.47 ± 0.3
41 | DPHNSRRGFFFSHVGWLLVRKHPA [SCD] | 2.33 ± 0.27 | 2.3 ± 0.35
42 | DQGGPVEILPFLYLGSAYHASKCE [DUSP5] | 2.34 ± 0.27 | 2.43 ± 0.14
43 | DRAAKRLSLESEGAGEGAAASPEL [TPPP] | 5.38 ± 0.14 | 5.32 ± 0.37
44 | DRERQPLLDRARGAAAQGQTQTVA [PI4K2A] | 5.22 ± 0.18 | 5.13 ± 0.28
45 | DRFYVINYLVRLSFHNLKFDCSTA [ZNF277] | 2.98 ± 0.88 | 2.54 ± 0.43
46 | DRTWTLCGTPEYLAPEVIQSKGHG [PRKX] | 3.91 ± 0.48 | 3.97 ± 0.35

Row | Sequence | protein stability index (treatment: DMSO) | protein stability index (treatment: MLN4924 1 uM, 8 h)
47 | DRYIAICNPLRYSVLMGHGVCMGL [OR10K2] | 2.54 ± 0.27 | 2.43 ± 0.43
48 | DSGFLGLRPTSVDPALRRRRRGPR [NOP53] | 5.15 ± 0.4 | 5.17 ± 0.25
49 | DSLHPRPPYLPLAVPEDLADRLVR [FUT8] | 4.14 ± 0.13 | 4.06 ± 0.14
50 | DSRRIFVGQDNGAVMEFHVSEDFN [WDFY1] | 4.07 ± 0.32 | 4.22 ± 0.11
51 | DTELLGQATLPVGSPSRPLSRRQL [C2CD2L] | 4.74 ± 0.18 | 4.81 ± 0.15
52 | DTGVGKSSIVWRFVEDSFDPNINP [RAB22A] | 2.93 ± 0.28 | 3.08 ± 0.29
53 | DVHHGNGTQHMFEDDPSVLYVSLH [HDAC6] | 2.97 ± 0.34 | 2.93 ± 0.31
54 | DVKDWWLFGFYFCMPLVCTAIFYT [EDNRA] | 2.76 ± 0.45 | 3.56 ± 0.84
55 | DVLKYSYVRLVCKDVRAPSRPAVG [ZSWIM9] | 2.25 ± 0.26 | 1.83 ± 0.22
56 | DVQNKLKESAQCVGDEFLNCKLAT [SNX8] | 3.43 ± 0.21 | 3.42 ± 0.24
57 | DWGPCSGSCGQGRTIRHVYCKTSD [ADAMTSL2] | 3.43 ± 0.25 | 3.44 ± 0.33
58 | DYDDGFSMKHTATARFQRNHRLIS [SMARCE1] | 2.99 ± 0.1 | 3.19 ± 0.31
59 | DYFERNWEPRRDMWVRFRAFEAAR [ZSWIM9] | 2.56 ± 0.12 | 2.66 ± 0.32
60 | DYSDHPSGGSYRDSYESYGNSRSA [RBMX] | 4.43 ± 0.36 | 4.44 ± 0.26
61 | DYSHRQKEQDVEKELRDGGEQDTW [NFE2L1] | 5.63 ± 0.5 | 5.46 ± 0.44
62 | EAIPILRAALKLEPSNKTIHAELS [FKBP8] | 2.49 ± 0.32 | 2.65 ± 0.14
63 | EAVESRGGVPGGCVLVPRADLRLG [SMAD6] | 4.07 ± 0.47 | 4.34 ± 0.17
64 | ECKKLFQVPEEMSRCRNSYTEQEL [DLC1] | 3.76 ± 0.092 | 4 ± 0.22
65 | ECTQMDHLGCMHYTVRAPVGVAGL [ALDH8A1] | 2.51 ± 0.37 | 2.68 ± 0.36
66 | EDEGFLREEERPLPRRDFQRQVWL [KCNA3] | 3.97 ± 0.1 | 4 ± 0.4
67 | EDFTNTLRELGHAEHEITELTATF [PKD2L1] | 4.43 ± 0.34 | 4.22 ± 0.091
68 | EDILNDPSQSEVMGEPHLMVEYKL [POMP] | 3.7 ± 0.17 | 3.72 ± 0.18
69 | EDQEEWHAQVVEELSNFKSQKVLG [ZBED1] | 5.41 ± 0.21 | 5.54 ± 0.21

Row | Sequence | protein stability index (treatment: DMSO) | protein stability index (treatment: MLN4924 1 uM, 8 h)
70 | EDQKLQVLLTQIESKKHQVETAFE [TRIM15] | 4.29 ± 0.22 | 4.51 ± 0.29
71 | EDRIVTQNRVFAYLCKRVPHTVLD [CEP70] | 2.27 ± 0.2 | 2.37 ± 0.37
72 | EDTQRHETYHQQGQCQVLVQRSPW [TCAP] | 4.03 ± 0.29 | 3.79 ± 0.17
73 | EDVPLAAKLVDLPCVIESLRTLDK [TAF7L] | 3.64 ± 0.29 | 3.48 ± 0.21
74 | EEEEDDLSELPPLEDMGQPPAEEA [FKBP8] | 5.63 ± 0.2 | 5.5 ± 0.38
75 | EEFAQAESKDQGKTLALARTMDIP [ALDH8A1] | 5.13 ± 0.19 | 5.38 ± 0.15
76 | EEHLSPLDFLHSANFSLGSINQRL [RNF180] | 3.17 ± 0.38 | 3.41 ± 0.24
77 | EELRQEWEAKQEKIKSEEIEITFS [FAM50A] | 4.98 ± 0.11 | 4.95 ± 0.35
78 | EELTYIIKQDINSLNKQIAQLQDF [STX5] | 2.61 ± 0.21 | 2.85 ± 0.26
79 | EENALWEEERAFWMENNGHVAGEQ [CCDC70] | 4.99 ± 0.22 | 5.29 ± 0.13
80 | EESEPGTLVGNVAQDLGLKMTDLL [PCDHGC5] | 4.34 ± 0.081 | 4.29 ± 0.55
81 | EFARKGSCFLINTADRIIRVYDGR [RBBP5] | 2.23 ± 0.67 | 2.24 ± 0.26
82 | EFKRLASSKAHTSRFISANLPCNK [PTPRD] | 2.88 ± 0.1 | 2.97 ± 0.41
83 | EFPADISSITEAVPSESEPPALQN [NFE2L1] | 5.31 ± 0.36 | 5.44 ± 0.22
84 | EFPEDPEFEAVVRQAELAIERCIF [PI4K2A] | 2.72 ± 0.1 | 2.96 ± 0.22
85 | EFQPAKCTDKENALKLFPVQPCSA [FAM189A2] | 3.97 ± 0.17 | 4.03 ± 0.51
86 | EHIYDLRSLENYHFVDEHGKDQGI [CLINT1] | 4.1 ± 0.25 | 4.08 ± 0.1
87 | EIFVDCDINREQLNDIFHLLKSHT [TPH1] | 2.19 ± 0.3 | 2.19 ± 0.35
88 | EKEVLRRERAVEWRERAVEKRERA [ZBED2] | 4.93 ± 0.44 | 4.95 ± 0.27
89 | EKQMEEKRRANQKSSAQGPIPWFL [PPEF2] | 3.71 ± 0.17 | 3.68 ± 0.32
